Results from the DeepSol protein solubility set.

Experiment: soluble on expression in E. coli; label from the status in PepcDB or PDB records

Row | Sequence | soluble on expression in E. coli
1 | MIETITQSQETAILESFLELVKSPYGNFASIGKLSHVLNDPDTLQKVVAVLSLTPQGKQAFEDRPMLGKIDLEQLHQLPNYTLGYMYADHMIRNQLTPPPVNENVNHPFMFLAAHLGETHDIWHVVTGCDTDKPGEVKLEAFYTAQLIPDRLFLALLAKNLLKTAMYEVELCEQILDGLTQGWMMGKRAKPLFGIEWNKLWETPLEELQTSLNIVPILEHHHHHH | soluble
2 | MHDASHNSLFKTKWMNDYLVDWLCARPIWNDVHKYRTHHTRHHAKTSTPEDPDLTLVAGFPTTKTSLTRKFLRDLVGITGFKFTVGRILMDAEVLKWTVANDLTWLPRENRQWYDYPKVFLKNSSKAIIANASIFGILWAFGRPELYLLWPLAYLTPFPLFIRIRSMAEHAGTQISNNALTNTRTTKAGWLARAFVAPIRVNYHMEHHLMAAVPFFKLPKMHQMLRERGHVPEPPTYVQVIHMLSSHQTNQHPLNSVEQGELEHHHHHH | soluble
3 | SLITVRIGGNEYPLDEVLEDPGRYARHLERAKTIQGFAECGCAEGRPRPKLVIRRHRDIFLLARWPEQAFRHAEGCPFHRKTQTTPGAADSLDAFRMRDGRHDIRLDASLSVSTHTPAKTVQRTPKGQFTKPQRRSAGLLALLEFAWEQAGLNVWPGTGARSWNGCWSQLTAELDDCRINGKDADGLLHVMQRWDPARKSEILAEFEAWQARLSPTAAGNPRGILIGEIESHAATQYGGKVVLRQSTQRFFMSSGLYERLQASFGTALAGIGRAEQRCVAVLLVEKSRSNYLTVVDIGAMLANRQFLPCDSSHEVAMADHLVALRRAFRKPLRHIGRAEVHPDFVLTDVQPETVIEVLGMAGNPAYDARTASKRQHYQTAGVPFLEWDAVATSISSVRVPPAGTRAADAR | soluble
4 | MSSSLFAPTIETIDYPFPPKPVPLSDAQKADYKARIKQLLIEKDAVLVAHYYTDPEIQALAEETGGCVSDSLEMARFGRDHPAKTLIVAGVKFMGETAKILSPEKTILMPTLEATCSLDLGCPIDKFSAFCDAHPDHTVVVYANTSAAVKARADWVVTSSIALEIVEHLDSEGKKIIWGPDRHLGSYIAKQTGAEMLMWQGDCIVHDEFKANALRDLKSVYPDAAILVHPESPASVVAMADAVGSTSQLIKAAQTMPNERFIVATDRGIFYKMQQAAPGKTLIEAPTGGNGATCKSCAHCPWMAMNGLKAIEASLSNSDKTTHEIFVDEDLRVKALIPLTRMLDFAKTLNMKVKGNALEHHHHHH | not soluble
5 | MGSDKIHHHHHHMETIHFTKVHGSQNDFFLVDEEENHITEWSDEKRANFAIKLCDRKHSLGGADGILYVTKSSEVGPIGQMRVVNSDGSIASMCGNGLRTVARYLLEKHALTDAKVETMKAILDVKKATSLGFDIPTYQVEISPVKFAAETLPMHVGVEKLFNQVIPELDAELAFSAVSVPNPHLITFVDQAVLDSNKQEKLASYLNSENPYFPDGVNVSFVKRLSDDAIYVRTFERGVGFTNACGTAMSACSLIKKMLDNNILETPLNVYNDGGRVQVTAKKDAAGEISLQLIGNATFVSKGSVRYENDIVTELTNEATAEQAQYQALVKEVKEFLKTTE | not soluble
6 | MGSDKIHHHHHHMNTAPFKLEADFASALPTMAAPWQGEEAPNPELVILNDDLAYSLGLDPTWLRTPEGVQFLLGLNPEPLTKAVAQAYSGHQFGQFVASLGDGRALLLGEARSADGVLHDIHLKGSGRTQFSRGADGRAVLGPVLREYIISEAMHALGVPTTRSLAVISTGRKIQRGSVAPGAVLVRVATSLIRVGSFQYSNISGGIELSQHLANYTITRHFPSLVAELSAPTPATYVSLFKAILQRQADTVGKWTRLGFVHGALNTDNTLISGETVDYGPCAFMERYRGDAKFSSIDTYGRYKFENQPMILGWNMARLVETLLPLLGATPDEGMTAAQEALVEFDDLCEQAIRKEFATALGLDESDTGTVEQFRELLYLHNPDITTLLRALTDNTAPPSGFEAFVHDWKTQDPDIEAMRAVNPLFIPRNHLVEAALADAVEGNLEKFHELLAAVTNPFDPTAGPDELRLPSEEGFEEDYMTFCGT | not soluble
7 | MPGVKVKETESFELALKKFKKQCEKAGILSEVRKREHYEKPSIKRKKKAIAARKRAMKKQRKMMDLEHHHHHH | not soluble
8 | MLTPERHQMILQLVKEQKVVKLQQLVERTESSESTIRRDLAQLEKQRLLKRVHGGAAVLTGKGQEPTMVEKSSKNIQIKQQIAKYAASVIEQGDCIYLDAGSTTFEMIPFLINKDVTVVTNGLMHIEALVENNIRAYLLGGMMKSRTKALIGAMAQESMQKYRFDKCFLGANGVHEQLGFTTPDPEEALLKQMALTLANEGYFLIDESKFSEVAFAKIANVEDANIITNHLEIDLEKYKQQTNVIEADKQLEHHHHHH | soluble
9 | MSLLEKINSSTCTLRFKNDWLKIFTCPVPSSDFLSFVGVATIDAPQHAVLSLLYDIESATEWVWKTREMRVLQELADDNEGRVVYQVVSAPWPVSDREIISRSTAYKDPETGEVFIKIESLPDFIPETSNCVRVRKLEGAWNILPLSENSCRVVFRLHIEPAGEIPSWLANIAVIDTPYHTLNNMRDMVKREKYKNPVGAPLKESTEGIIRNYNDFITELEHHHHHH | soluble
10 | MTMIKKIETELLAAKATLSEISGRFKEFSDTQARLSADGDLLGLARLNKEHTGLEDSLLAADDTVRALESRLSVLRQAEYRPQFDKAHKTHLGAVQAETKAAEKLLAAIDAVFSAATDMQNLSDEVAATYHAARDLHNRAGLDHELRWPAPDGQIPIKISDRMNSLRDELVRTIRLYEDRLPQSQSLEGLRIIEQQQEELVRNSGRGFR | soluble
11 | MGSDKIHHHHHHMNAWEVNFDGLVGLTHHYAGLSFGNEASTRHRFQVSNPRLAAKQGLLKMKALADAGFPQAVIPPHERPFIPVLRQLGFSGSDEQVLEKVARQAPHWLSSVSSASPMWVANAATIAPSADTLDGKVHLTVANLNNKFHRSLEAPVTESLLKAIFNDEEKFSVHSALPQVALLGDEGAANHNRLGGHYGEPGMQLFVYGREEGNDTRPSRYPARQTREASEAVARLNQVNPQQVIFAQQNPDVIDQGVFHNDVIAVSNRQVLFCHQQAFARQSQLLANLRARVNGFMAIEVPATQVSVSDTVSTYLFNSQLLSRDDGSMMLVLPQECREHAGVWGYLNELLAADNPISELKVFDLRESMANGGGPACLRLRVVLTEEERRAVNPAVMMNDTLFNALNDWVDRYYRDRLTAADLADPQLLREGREALDVLSQLLNLGSVYPFQREGGGNG | not soluble
12 | MGLMKKFRDYFLEEDYEDYDEEYEAPQPEEEAPPKTAGKANVVSLQSVQKSAKVVLAEPRVYAEAQEIADHLKSRRAVIVNLQRIQHEQAKRIVDFLSGTVYAIGGDIQQVGTKIFLCTPENVDVSGSISLDGEDDRPMKRW | not soluble
13 | MSIKIGLLGFGTVASGMPFLLKENKDKITAASGTKLEIAKVLVKDDDEKKRLLAAGNDFNFVTNVDDILSDDDIAIVVELMGRIEPAKTFITKALEAGKHVVSANKDLIATHGKELIRLAQDKGVAFYYEAAVAGGIPILRTLANSLTSDKVTRILGVLNGTSNFMMTKMVDEGWTYEAALKKAQELGYAESDPTNDVEGIDAAYKAVILSQFGFGMTIDFDQVVHQGISSITPDDVAMAQQLGYVIKLVGSVEETPSGIFAEVSPTFLPKSHPLASVNDVMNAVFVESIGIGESMYYGPGAGQKPTATSVVADVIRIARRIKDGNVGKCFNEFIRETKIAHPDDVKSHYYFAINTADEKGKMLRLAEIFNSEDISFEQVLQQKANGEQARVVIITHSLSKSQLVNVTEKLQAVADFKLLNTFKVLGE | not soluble
14 | MGSDKIHHHHHHMGQIRVSGLGKAYKQYPNRWSRLFEWLVPFSPPRHHLHWILREVEFTIEPGEAVGIVGVNGAGKSTLLKMIAGTTQPTCGEIRVAGRVAALLELGMGFHPDFTGRQNVFMAGQLLGMQVEEIQALMPDIEAFAEIGEAIEQPVRTYSSGMQMRLAFSVATARRPDILIVDEALSVGDAYFQHKSFERIRSFRKAGTTLLIVSHDRSAIQSICDSAILLEQGRMAMRGRPEEVMDYYNALLAEREGQTVRQEMLADGQVRTISGTGEAAILDVRMVDQRQRALEVVEVGQAVTLEVEVEVRQDIERLILGFMIKDRLGQPMYGINTHRLDKALTDLKAGERITYRFAFDMRLGKGHYSVALSLSRLDSHLDRNFEWRDYGLVFHVINNRQEDFVGCSWLGAETHISRSGEAALDPTSAESTP | not soluble
